Test results published in the supplement of paper PMC10126150.
± gives the standard deviation of the averaged measurements.
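Also: ATP exposure 15 min at 22 °C before imaging.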

The sequences below were run on ATP (assay: switch fluorescence ratio, 500 uM ATP over buffer (Cy3 cluster intensity, sum of 5 cycles each) (fold (ratio)); higher = stronger signal-on switching upon ATP binding; sequences stand for … in TCGTCGGCAGCGTCAGATGTGTATAAGAGACAGTTTTTTTTTTTTTTTTTTTTTTTTT…TC). Conditions: aptamer strand: ATP DNA aptamer (quencher-CACCTGGGGGAGTATTGCGGAGGAAGG + anchor), 100 nM annealed; ATP concentration: 500 uM.
How it was run: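 Cy3-labelled switching-strand clusters on a modified Illumina MiSeq flow-cell were annealed to 100 nM quencher-labelled ATP aptamer, imaged in selection buffer, then imaged after 15 min with 500 uM ATP at 22 °C. Five buffer/ATP cycles ran, with NaOH stripping and re-annealing between them. The fluorescence ratio is summed target-cycle over summed buffer-cycle Cy3 intensity per cluster, averaged per switch-domain sequence. Clusters outside 100-1000 RFU were excluded.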
Work on ACATATCCGT yielded a switch fluorescence ratio of 1.01 ± 0.021.
In the case of GCATGGGGAC, the switch fluorescence ratio is reported as 1.05 ± 0.081.
CGCTGACCTT gave a switch fluorescence ratio of 1.2 ± 0.037.
With ACGGCATTAT the switch fluorescence ratio was 1.164 ± 0.0042.
GGAATAGTGG gave a switch fluorescence ratio of 0.982 ± 0.025.
With GGACTGGAAG the switch fluorescence ratio was 1.19 ± 0.051.
For TTCCGGGTAT, the switch fluorescence ratio was 1.07 ± 0.03.
In the case of AACTGCGGTC, the switch fluorescence ratio is reported as 1.016 ± 0.0031.
GAAACGAATT was tested, and the switch fluorescence ratio was 1.02 ± 0.018.
CAATATTATG gave a switch fluorescence ratio of 1.02 ± 0.02.
With AGTAAGGGGA the switch fluorescence ratio was 1.08 ± 0.045.
In the case of GTGTGGGGGC, the switch fluorescence ratio is reported as 1.008 ± 0.0072.
Sequence ACGCACTAAG has a switch fluorescence ratio of 1.61 ± 0.026.
Work on CTACATGCCC yielded a switch fluorescence ratio of 1.15 ± 0.18.
In the case of GAGGGTAATC, the switch fluorescence ratio is reported as 1.004 ± 0.01.
For CGATCCAGTG, the switch fluorescence ratio was 1.39 ± 0.061.
For AATATCAGGA, the switch fluorescence ratio was 1.026 ± 0.0083.
ACAGCGCGAC gave a switch fluorescence ratio of 1.32 ± 0.017.
TTTGGTTGG gave a switch fluorescence ratio of 1.0076 ± 0.00057.
In the case of TATTAGTAAG, the switch fluorescence ratio is reported as 0.985 ± 0.034.
TGGGGTTTAG was tested, and the switch fluorescence ratio was 0.99 ± 0.024.
With AATCAATTAA the switch fluorescence ratio was 1.001 ± 0.0016.
TGGGCAATGG showed a switch fluorescence ratio of 1.833 ± 0.018.
In the case of TGCGGGCGGC, the switch fluorescence ratio is reported as 0.98 ± 0.024.
With TTTTTAAGAT the switch fluorescence ratio was 0.995 ± 0.035.
In the case of AGGGGAGGGA, the switch fluorescence ratio is reported as 1 ± 0.027.
AGTGATGTGT showed a switch fluorescence ratio of 1 ± 0.017.
In the case of TCGACGGGGA, the switch fluorescence ratio is reported as 1.1 ± 0.047.
With AATGTATGGG the switch fluorescence ratio was 0.99 ± 0.058.
With TAGTCGCCGA the switch fluorescence ratio was 0.986 ± 0.017.
With TCGGACTGGG the switch fluorescence ratio was 1.01 ± 0.022.
Sequence TCGAGGTTGC has a switch fluorescence ratio of 0.993 ± 0.025.
In the case of CAGTTGTGGG, the switch fluorescence ratio is reported as 0.9802 ± 0.0066.
Work on AGTTAACAGC yielded a switch fluorescence ratio of 0.959 ± 0.04.
Work on ACCGTGTATG yielded a switch fluorescence ratio of 1.01 ± 0.027.
Work on GGAATTCTCC yielded a switch fluorescence ratio of 1.21 ± 0.03.
Sequence ACCTCGAAGA has a switch fluorescence ratio of 1.03 ± 0.014.
GCAAGTTCAA showed a switch fluorescence ratio of 1.01 ± 0.031.
GCTCGGGTTG gave a switch fluorescence ratio of 0.984 ± 0.041.
CGTACGCCGG gave a switch fluorescence ratio of 0.993 ± 0.021.
For ATTTAATACG, the switch fluorescence ratio was 1.02 ± 0.052.
GGTAAACGGA gave a switch fluorescence ratio of 1.02 ± 0.044.
In the case of TTTTAACCCC, the switch fluorescence ratio is reported as 1.26 ± 0.19.
Work on CGGGAAGTTC yielded a switch fluorescence ratio of 1.03 ± 0.016.
In the case of GATCTGTGGA, the switch fluorescence ratio is reported as 0.95 ± 0.052.
GTCAGTGCTA was tested, and the switch fluorescence ratio was 1.0169 ± 0.001.
GGTCTCAGGT showed a switch fluorescence ratio of 1.03 ± 0.023.
For TTCAATTGGA, the switch fluorescence ratio was 1 ± 0.042.
In the case of CCTCTGGGAT, the switch fluorescence ratio is reported as 2.24 ± 1.7.
Sequence GAAAGCGGTG has a switch fluorescence ratio of 1.01 ± 0.015.
For TTTCGGAATT, the switch fluorescence ratio was 1.35 ± 0.48.
AAGGGATGGC gave a switch fluorescence ratio of 1.03 ± 0.043.
TTGTGGACTT was tested, and the switch fluorescence ratio was 0.9995 ± 0.0093.
With TTAAGTGGGC the switch fluorescence ratio was 1.12 ± 0.17.
AGTTTTAGTC was tested, and the switch fluorescence ratio was 1.01 ± 0.017.
With ATTGTCATGG the switch fluorescence ratio was 0.999 ± 0.028.
ACATTGAGCG showed a switch fluorescence ratio of 1.03 ± 0.028.
In the case of CGGGGGGAGC, the switch fluorescence ratio is reported as 1.01 ± 0.056.
With TCGGTCAAGG the switch fluorescence ratio was 0.949 ± 0.02.
In the case of TGCTACAAGG, the switch fluorescence ratio is reported as 1.03 ± 0.011.
CTAGCAACGT was tested, and the switch fluorescence ratio was 1.03 ± 0.067.
Sequence AAGTTCACAA has a switch fluorescence ratio of 1.01 ± 0.033.
For GAGCGGGGGT, the switch fluorescence ratio was 1.01 ± 0.013.
AGGTGTTGCG was tested, and the switch fluorescence ratio was 1.016 ± 0.0056.
For GGGTGAGGGT, the switch fluorescence ratio was 0.993 ± 0.015.
Work on AGAGGGCCAT yielded a switch fluorescence ratio of 0.9972 ± 0.0021.
TCTTAAAGCA showed a switch fluorescence ratio of 1.02 ± 0.06.
For TCAAACAGCG, the switch fluorescence ratio was 0.9861 ± 0.00055.
GAGGGAATGG gave a switch fluorescence ratio of 1.07 ± 0.061.
With GTTTGTAAGT the switch fluorescence ratio was 1.01 ± 0.045.
TTTTTGCAAT gave a switch fluorescence ratio of 1.43 ± 0.24.
TTTTCGGTCT showed a switch fluorescence ratio of 0.994 ± 0.017.
With GGGATGCGG the switch fluorescence ratio was 0.9609 ± 0.0064.
For TTTCTTTGAT, the switch fluorescence ratio was 0.998 ± 0.029.
AAGCTTTTAT gave a switch fluorescence ratio of 0.993 ± 0.06.
In the case of TTTTTTTGGA, the switch fluorescence ratio is reported as 0.976 ± 0.021.
GGAGGTGGTT was tested, and the switch fluorescence ratio was 0.981 ± 0.018.
ATTGTGGGAG showed a switch fluorescence ratio of 0.972 ± 0.017.
Work on GGCGTATCAG yielded a switch fluorescence ratio of 0.979 ± 0.051.
In the case of TTACGCAAGT, the switch fluorescence ratio is reported as 1.27 ± 0.17.
In the case of TGGCGGCCAC, the switch fluorescence ratio is reported as 1.04 ± 0.15.
In the case of TTGACTTTGA, the switch fluorescence ratio is reported as 1.02 ± 0.016.
AACCGGTGCA showed a switch fluorescence ratio of 1.08 ± 0.017.
Work on TTTTATGCAA yielded a switch fluorescence ratio of 1.28 ± 0.3.
Sequence GGATTTAGAA has a switch fluorescence ratio of 0.975 ± 0.032.
GGGGACGATG was tested, and the switch fluorescence ratio was 0.996 ± 0.019.
Work on CGGAGGGGAT yielded a switch fluorescence ratio of 1.062 ± 0.005.
For AAAATGGCCA, the switch fluorescence ratio was 1.02 ± 0.083.
In the case of TTCGTGTCCC, the switch fluorescence ratio is reported as 0.994 ± 0.019.
For ACATTATGGA, the switch fluorescence ratio was 1.035 ± 0.0081.
Work on GAAAAATGAC yielded a switch fluorescence ratio of 0.999 ± 0.021.
With TGGGTGGCGA the switch fluorescence ratio was 1.02 ± 0.043.
TTCCAAAATG gave a switch fluorescence ratio of 1.005 ± 0.0081.
For GGTACGATGG, the switch fluorescence ratio was 1.01 ± 0.015.
CGTATTTGGA showed a switch fluorescence ratio of 0.985 ± 0.046.
ACGATTGGTT showed a switch fluorescence ratio of 1.005 ± 0.01.
With TTGGTAAGGG the switch fluorescence ratio was 1.03 ± 0.011.
With TGCCGTTTTT the switch fluorescence ratio was 1.02 ± 0.069.
GGCCGGCTAA gave a switch fluorescence ratio of 0.997 ± 0.011.
TGTGAACTTT was tested, and the switch fluorescence ratio was 1.01 ± 0.012.
